Results on 30 substances are retold here after article PMC10526015.

Chain of ADI-26906 IgG1 LALA-D265A (L234A/L235A/D265A) (human) (heavy, as listed by the source, chain 1 of 2): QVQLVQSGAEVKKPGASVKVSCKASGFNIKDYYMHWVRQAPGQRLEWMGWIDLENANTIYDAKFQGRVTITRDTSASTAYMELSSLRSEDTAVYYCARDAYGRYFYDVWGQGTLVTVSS
Chain of ADI-26906 IgG1 LALA-D265A (L234A/L235A/D265A) (human) (light, as listed by the source, chain 2 of 2): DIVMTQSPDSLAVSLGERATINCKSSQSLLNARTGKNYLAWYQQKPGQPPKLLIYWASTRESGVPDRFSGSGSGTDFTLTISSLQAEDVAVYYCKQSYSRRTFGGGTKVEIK

The first test has as its target FcγR on THP-1 cells (FcγRI and FcγRII). Briefly: flow cytometry on cells; THP-1 cells, 100 nM uncomplexed IgG, 30 min on ice, PBSF; goat anti-human IgG R-PE; median fluorescence intensity.
Consider ADI-26906 IgG1 L234A/G237A (antibody), for which the MFI was found to be 184 MFI.
On the same count and under the same terms, with ADI-26906 IgG1 L234A/L235A (antibody) the figure was 491 MFI; with “ADI-26906 IgG1 L234A/L235A/G237A (antibody)”, 150 MFI.
Substance ADI-26906 IgG1 L234A/L235E (antibody) came in with an MFI of 192 MFI.
Same read-out and setting: as for ADI-26906 IgG1 L234A/L235K (antibody), the figure is 140 MFI; as for ADI-26906 IgG1 L234E/L235K (antibody), 176 MFI; as for ADI-26906 IgG1 L234F/L235E (antibody), 369 MFI.
On the same count and under the same terms, as for ADI-26906 IgG1 L234F/L235K (antibody), the figure is 386 MFI; as for ADI-26906 IgG1 L235A/G237A (antibody), 192 MFI.

For another test the target is unchanged. Described as above. This is another data set of the same source.
For ADI-26906 IgG1 L234A/L235A (antibody), the MFI was 270 MFI.
In the case of ADI-26906 IgG1 L234A/L235E (antibody), the MFI is 127 MFI.

The next test shares this target. Briefly: flow cytometry on cells; THP-1 cells; ~100 nM IgG pre-complexed with 10 nM CD3ε-BSA (CD3ε peptide 21–47 on BSA) 20 min RT, highly avid; 30 min on ice; goat anti-human IgG PE; median fluorescence intensity.
Consider ADI-26906 IgG1 L234A/L235A (antibody), for which the MFI was 5270 MFI.
Same read-out and setting: as for ADI-26906 IgG1 L234A/L235E (antibody), the figure is 5300 MFI; as for “ADI-26906 IgG1 LALA-A327G (L234A/L235A/A327G) (antibody)”, 7010 MFI; as for “ADI-26906 IgG1 LALA-A330S (L234A/L235A/A330S) (antibody)”, 4440 MFI.
With “ADI-26906 IgG1 LALA-A330S/P331S (L234A/L235A/A330S/P331S) (antibody)”, the MFI turned out to be 3840 MFI.
Still for that read-out and setting: with “ADI-26906 IgG1 LALA-D270A (L234A/L235A/D270A) (antibody)” the figure was 2270 MFI; with “ADI-26906 IgG1 LALA-H268Q (L234A/L235A/H268Q) (antibody)”, 4800 MFI.
For the substance “ADI-26906 IgG1 LALA-K322A (L234A/L235A/K322A) (antibody)”, the MFI was 4390 MFI.
Regarding “ADI-26906 IgG1 LALA-L309A (L234A/L235A/L309A) (antibody)”, the MFI was 4790 MFI.
On the same count and under the same terms, as for “ADI-26906 IgG1 LALA-L309V (L234A/L235A/L309V) (antibody)”, the figure is 4850 MFI; as for “ADI-26906 IgG1 LALA-L328A (L234A/L235A/L328A) (antibody)”, 6420 MFI.
On to “ADI-26906 IgG1 LALA-P331S (L234A/L235A/P331S) (antibody)”, for which the MFI is 4220 MFI.
The same measure, in the same setting: as for “ADI-26906 IgG1 LALA-Y296F (L234A/L235A/Y296F) (antibody)”, the figure is 3810 MFI; as for “ADI-26906 IgG1 LALE-A330S (L234A/L235E/A330S) (antibody)”, 2260 MFI.
On the same count and under the same terms, with “ADI-26906 IgG1 LALE-A330S/P331S (L234A/L235E/A330S/P331S) (antibody)” the figure was 1390 MFI.
For the substance “ADI-26906 IgG1 LALE-D270A (L234A/L235E/D270A) (antibody)”, the MFI worked out at 546 MFI.
Same read-out and setting: with “ADI-26906 IgG1 LALE-H268Q (L234A/L235E/H268Q) (antibody)” the figure was 4000 MFI; with “ADI-26906 IgG1 LALE-K322A (L234A/L235E/K322A) (antibody)”, 2320 MFI; with “ADI-26906 IgG1 LALE-L309A (L234A/L235E/L309A) (antibody)”, 2760 MFI.
On the same count and under the same terms, with “ADI-26906 IgG1 LALE-L309V (L234A/L235E/L309V) (antibody)” the figure was 3540 MFI; with “ADI-26906 IgG1 LALE-L328A (L234A/L235E/L328A) (antibody)”, 7040 MFI.
Still for that read-out and setting: with “ADI-26906 IgG1 LALE-P331S (L234A/L235E/P331S) (antibody)” the figure was 1760 MFI.

The next test concerns the target ADI-26906 IgG1 LALA-D265A (L234A/L235A/D265A) (human). Briefly: bead-based flow cytometry (Dynal bead assay); biotinylated CD3ε peptide on streptavidin Dyna Beads, saturated with antibody; beads incubated with C1q alone or with C1q and human complement C3, 25 min RT, PBSF; anti-C1q APC and anti-C3 PE.
The substance human complement C1q (complex) showed a C1q Dynal FACS MFI of 1950 MFI.

The target of the next test is ADI-26906 IgG1 LALE-D265A (L234A/L235E/D265A) (human). The description is as above.
Chain of ADI-26906 IgG1 LALE-D265A (L234A/L235E/D265A) (human) (heavy, as listed by the source, chain 1 of 2): as the sequence (heavy, as listed by the source, chain 1 of 2) above
Chain of ADI-26906 IgG1 LALE-D265A (L234A/L235E/D265A) (human) (light, as listed by the source, chain 2 of 2): as the sequence (light, as listed by the source, chain 2 of 2) above
In the case of human complement C1q (complex), the C1q Dynal FACS MFI was determined as 2280 MFI.
